Target: tetraubiquitin chain (Homo sapiens, UniProt P0CG48, tetraubiquitin chain, N-terminal Dylight550-labeled ubiquitin)
Experiment: single-molecule TIRF dwell time

Kd: 210 nM
B1: 26S proteasome (protein)
chain 1: MVLESTMVCVDNSEYMRNGDFLPTRLQAQQDAVNIVCHSKTRSNPENNVGLITLANDCEVLTTLTPDTGRILSKLHTVQPKGKITFCTGIRVAHLALKHRQGKNHKMRIIAFVGSPVEDNEKDLVKLAKRLKKEKVNVDIINFGEEEVNTEKLTAFVNTLNGKDGTGSHLVTVPPGPSLADALISSPILAGEGGAMLGLGASDFEFGVDPSADPELALALRVSMEEQRQRQEEEARRAAAASAAEAGIATTGTEDSDDALLKMTISQQEFGRTGLPDLSSMTEEEQIAYAMQMSLQGAEFGQAESADIDASSAMDTSEPAKEEDDYDVMQDPEFLQSVLENLPGVDPNNEAIRNAMGSLASQATKDGKKDKKEEDKK
chain 2: TTSGALFPSLVPGSRGASNKYLVEFRAGKMSLKGTTVTPDKRKGLVYIQQTDDSLIHFCWKDRTSGNVEDDLIIFPDDCEFKRVPQCPSGRVYVLKFKAGSKRLFFWMQEPKTDQDEEHCRKVNEYLNNPPMPGALGASGSSGHELSALGGEGGLQSLLGNMSHSQLMQLIGPAGLGGLGGLGALTGPGLASLLGSSGPPGSSSSSSSRSQSAAVTPSSTTSSTRATPAPSAPAAASATSPSPAPSSGNGASTAASPTQPIQLSDLQSILATMNVPAGPAGGQQVDLASVLTPEIMAPILANADVQERLLPYLPSGESLPQTADEIQNTLTSPQFQQALGMFSAALASGQLGPLMCQFGLPAEAVEAANKGDVEAFAKAMQNNAKPEQKEGDTKDKKDEEEDMSLD

From article PMC4450770 (2016)
